Experimental data reported in paper PMC6939381.
pKd: −log10 of the molar value.

Molecular target: CohE-CBM(C63S)-ybbR (Ruminococcus flavefaciens)
Test: ITC

- pKd: 6.83
Substance: ybbR-CBM(C63S)-ScaB-XDoc (domain or fragment)
